Reference: patent US20080305097

Tested on: stromal cell-derived factor 1 (SDF-1)

Substance: cathepsin K (CTK)
- SDF-1 cleavage by CTK (SDS-PAGE and western blot, time course of minutes): The results obtained show fast and site specific SDF-1 cleavage by CTK
